Experimental findings from paper PMC5003112 (Nature chemical biology, 2016) are described below.

The data set “crystal structure” deals with the molecule itself. The data set can be described thus: crystal structure.
The data set “SEC” concerns the molecule itself. The data set can be described thus: SEC.

B1: Escherichia coli NudC (crystallization construct) (enzyme, E. coli)
chain: MDRIIEKLDHGWWVVSHEQKLWLPKGELPYGEAANFDLVGQRALQIGEWQGEPVWLVQQQRRHDMGSVRQVIDLDVGLFQLAGRGVQLAEFYRSHKYCGYCGHEMYPSKTEWAMLCSHCRERYYPQIAPCIIVAIRRDDSILLAQHTRHRNGVHTVLAGFVEVGETLEQAVAREVMEESGIKVKNLRYVTSQPWPFPQSLMTAFMAEYDSGDIVIDPKELLEANWYRYDDLPLLPPPGTVARRLIEDTVAMCRAEYE
Regarding B1, the “stoichiometry N” value in “crystal structure” came out at 2.

B2: E. coli NudC Y188Q (enzyme, E. coli K-12, UniProt P32664 1-257, looked up)
chain: MDRIIEKLDHGWWVVSHEQKLWLPKGELPYGEAANFDLVGQRALQIGEWQGEPVWLVQQQRRHDMGSVRQVIDLDVGLFQLAGRGVQLAEFYRSHKYCGYCGHEMYPSKTEWAMLCSHCRERYYPQIAPCIIVAIRRDDSILLAQHTRHRNGVHTVLAGFVEVGETLEQAVAREVMEESGIKVKNLRQVTSQPWPFPQSLMTAFMAEYDSGDIVIDPKELLEANWYRYDDLPLLPPPGTVARRLIEDTVAMCRAEYE
In the case of B2, the binding result in the data set “SEC” is on record as “binds”.

B3: E. coli NudC Y188A (enzyme, E. coli K-12, UniProt P32664 1-257, looked up)
chain: MDRIIEKLDHGWWVVSHEQKLWLPKGELPYGEAANFDLVGQRALQIGEWQGEPVWLVQQQRRHDMGSVRQVIDLDVGLFQLAGRGVQLAEFYRSHKYCGYCGHEMYPSKTEWAMLCSHCRERYYPQIAPCIIVAIRRDDSILLAQHTRHRNGVHTVLAGFVEVGETLEQAVAREVMEESGIKVKNLRAVTSQPWPFPQSLMTAFMAEYDSGDIVIDPKELLEANWYRYDDLPLLPPPGTVARRLIEDTVAMCRAEYE
Regarding B3, the binding result in the data set “SEC” was “binds”.
